One assay deals with T1, TNF (mouse, UniProt P06804 80-235).
T1 sequence (looked up): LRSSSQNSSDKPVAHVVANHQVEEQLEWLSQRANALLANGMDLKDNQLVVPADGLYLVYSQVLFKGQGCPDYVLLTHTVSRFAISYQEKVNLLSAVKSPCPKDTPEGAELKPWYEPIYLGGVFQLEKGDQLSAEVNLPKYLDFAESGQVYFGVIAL
Description: cell-based or functional assay.

The target of assay [1] is T2, mouse Transferrin Receptor overexpressed on Hek 293 cells (mouse, UniProt Q62351 1-763).
T2 construct: whole, on cells; also called mTfR; Hek293/mTfR
Description: 293/mTfR cell-based assay. The procedure:
(§1) Meso-scale Discovery (MSD) Electrochemiluminescence (ECL) assays to screen for antibodies or DVD-Ig proteins that bind a desired target antigen expressed on the cell surface were performed as follows: Hek 293 cells overexpressing mouse Transferrin Receptor were added onto MSD 96-well plates (MSD Cat# L11 XB-3, lot#2290-EA). The plates which were blocked using blocking buffer (30% FBS Serum (Hyclone) in PBS) at 37° C. for 1 hour. After incubating at room temperature (RT) for 30 minutes with mild agitation, plates were washed with DPBS 3 times and Abs/DVD-Ig proteins (10,000 ng/ml) were added. After incubating for 1 hour at RT, plates were washed 3 times with DPBS and 25 μl of Goat anti-human Sulfo TAG (MSD Cat# R32AC-, Lot# W001162) at 1 μg/ml was added. Following incubation at RT for 1 hour, plates were washed and MSD read buffer was added before reading on a MSD SECTOR Imager 6000. EC50 values were obtained using Xlfit4 software package.

For assay [2], the target named is mouse Transferrin Receptor overexpressed on Hek 293 cells (mouse) (UniProt Q62351). Description: mTfR binding cell-based assay.
Assay [3] shares this target. Nature of the assay: cell-based MSD-ECL binding, Hek293/mTfR cells.
Assay [4] shares this target. Description: TfR binding EC50, cell-based assay (repeats Table 7).
Assay [5] deals with T3, rmTfR (123-763) (mouse, UniProt Q62351 123-763).
T3 construct: range 123-763; also called recombinant mouse transferrin receptor 123-763
Description: Biacore SPR, antibody captured by anti-human IgG Fc, rmTfR (123-763) in solution. Here is the method:
(§2) The BIACORE assay (Biacore, Inc, Piscataway, N.J.) was used to determine the affinity of antibodies or DVD-Ig proteins with kinetic measurements of on-rate and off-rate constants. Binding of antibodies or DVD-Ig protein to a target antigen (for example, a purified recombinant target antigen) was determined by surface plasmon resonance-based measurements with a Biacore® 1000 or 3000 instrument (Biacore® AB, Uppsala, Sweden) using running HBS-EP (10 mM HEPES [pH 7.4], 150 mM NaCl, 3 mM EDTA, and 0.005% surfactant P20) at 25° C. All chemicals were obtained from Biacore® AB (Uppsala, Sweden) or otherwise from a different source as described in the text. For example, approximately 5000 RU of goat anti-human IgG, (Fcγ), fragment specific polyclonal antibody (Pierce Biotechnology Inc, Rockford, Ill.) diluted in 10 mM sodium acetate (pH 4.5) was directly immobilized across a CM5 research grade biosensor chip using a standard amine coupling kit according to manufacturer's instructions and procedures at 25 μg/ml. Unreacted moieties on the biosensor surface were blocked with ethanolamine. Modified carboxymethyl dextran surface in flowcell 2 and 4 was used as a reaction surface. Unmodified carboxymethyl dextran without goat anti-human IgG in flow cell 1 and 3 was used as the reference surface. For kinetic analysis, rate equations derived from the 1:1 Langmuir binding model were fitted simultaneously to association and dissociation phases of all eight injections (using global fit analysis) with the use of BIAevaluation 4.0.1 software. Purified antibodies or DVD-Ig proteins were diluted in HEPES-buffered saline for capture across goat anti-human IgG specific reaction surfaces. Antibodies or DVD-Ig proteins to be captured as ligands (25 μg/ml) were injected over reaction matrices at a flow rate of 5 μl/minute. The association and dissociation rate constants, kon (M⁻¹ s⁻¹) and koff (s⁻¹) were determined under a continuous flow rate of 25 μl/minute. Rate constants were derived by making kinetic binding measurements at different antigen concentrations ranging from 10-200 nM. The equilibrium dissociation constant (M) of the reaction between antibodies or DVD-Ig proteins and the target antigen was then calculated from the kinetic rate constants by the following formula: KD=koff/kon. Binding was recorded as a function of time and kinetic rate constants were calculated.
(In general: In SPR one partner is held on a chip, and binding of the other changes the refractive index at the surface.)

Assay [6] deals with T2, mouse Transferrin Receptor …. Description: cell-based MSD-ECL binding, Hek293/mTfR cells. Here is the method:
as §1

The target in assay [7] is T3, rmTfR (123-763). Nature of the assay: Biacore SPR, DVD-Ig captured by anti-human IgG Fc, rmTfR (123-763) in solution. Here is the method:
as §2, with “Purified antibodies or DVD-Ig proteins were diluted in HEPES-buffered saline for capture across goat anti-human IgG specific reaction surfaces. Antibodies or DVD-Ig proteins to be captured as ligands (25 μg/ml) were injected over reaction matrices at a flow rate of 5 μl/minute.” left out, “Rate constants were derived by making kinetic binding measurements at different antigen concentrations ranging from 10-200 nM.” left out

Assay [8] deals with mouse Transferrin Receptor overexpressed on Hek 293 cells (mouse) (UniProt Q62351). Nature of the assay: binding signal on TfR against 'Ab, ng/ml'; format not stated for this figure, Examples 4 and 9 describe the cell-based Hek293/mTfR MSD-ECL binding assay.
The target of another assay is rmTfR (119-763) (mouse) (UniProt Q62351). Description: Biacore SPR, antibody captured by anti-human IgG Fc, rmTfR (119-763) in solution.
Chain of rmTfR (119-763) (mouse) (Q62351 119-763): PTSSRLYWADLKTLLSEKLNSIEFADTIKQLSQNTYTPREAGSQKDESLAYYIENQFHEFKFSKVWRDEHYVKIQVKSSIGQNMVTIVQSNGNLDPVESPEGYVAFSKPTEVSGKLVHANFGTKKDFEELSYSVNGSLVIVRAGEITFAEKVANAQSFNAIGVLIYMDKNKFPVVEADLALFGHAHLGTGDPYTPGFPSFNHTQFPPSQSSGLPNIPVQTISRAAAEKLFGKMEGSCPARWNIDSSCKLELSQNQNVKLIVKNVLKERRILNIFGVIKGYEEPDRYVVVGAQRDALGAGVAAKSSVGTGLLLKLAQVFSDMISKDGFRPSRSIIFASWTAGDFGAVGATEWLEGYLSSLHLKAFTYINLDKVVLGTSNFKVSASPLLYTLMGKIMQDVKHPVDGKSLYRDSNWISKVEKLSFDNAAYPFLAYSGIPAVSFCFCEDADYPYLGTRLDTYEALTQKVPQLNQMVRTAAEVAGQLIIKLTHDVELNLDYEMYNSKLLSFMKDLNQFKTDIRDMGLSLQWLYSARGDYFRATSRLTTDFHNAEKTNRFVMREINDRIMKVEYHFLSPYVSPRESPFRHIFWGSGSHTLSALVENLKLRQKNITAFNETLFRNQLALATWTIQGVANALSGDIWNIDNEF

T2 sequence (Q62351 whole entry): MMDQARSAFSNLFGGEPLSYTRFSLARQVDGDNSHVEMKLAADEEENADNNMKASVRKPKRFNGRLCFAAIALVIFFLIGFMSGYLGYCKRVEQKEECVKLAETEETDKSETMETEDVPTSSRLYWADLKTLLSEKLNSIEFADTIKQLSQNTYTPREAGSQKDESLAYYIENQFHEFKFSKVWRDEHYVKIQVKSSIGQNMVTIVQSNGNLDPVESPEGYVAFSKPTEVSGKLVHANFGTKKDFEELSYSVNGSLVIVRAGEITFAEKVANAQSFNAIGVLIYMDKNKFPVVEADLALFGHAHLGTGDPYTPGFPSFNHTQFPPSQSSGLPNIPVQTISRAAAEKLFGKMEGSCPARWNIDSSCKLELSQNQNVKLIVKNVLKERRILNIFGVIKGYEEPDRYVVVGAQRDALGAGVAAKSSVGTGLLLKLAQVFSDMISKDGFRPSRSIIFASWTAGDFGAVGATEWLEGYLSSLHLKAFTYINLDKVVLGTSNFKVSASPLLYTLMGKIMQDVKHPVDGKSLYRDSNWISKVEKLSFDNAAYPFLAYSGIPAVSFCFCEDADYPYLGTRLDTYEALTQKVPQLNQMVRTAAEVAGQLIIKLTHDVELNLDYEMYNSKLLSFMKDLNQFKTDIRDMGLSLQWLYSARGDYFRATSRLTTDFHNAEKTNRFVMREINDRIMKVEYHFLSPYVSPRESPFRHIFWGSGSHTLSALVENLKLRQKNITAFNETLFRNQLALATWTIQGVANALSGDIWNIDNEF
Chain of mouse Transferrin Receptor overexpressed on Hek 293 cells (mouse) (Q62351 whole entry): as above
T3 sequence (Q62351 123-763): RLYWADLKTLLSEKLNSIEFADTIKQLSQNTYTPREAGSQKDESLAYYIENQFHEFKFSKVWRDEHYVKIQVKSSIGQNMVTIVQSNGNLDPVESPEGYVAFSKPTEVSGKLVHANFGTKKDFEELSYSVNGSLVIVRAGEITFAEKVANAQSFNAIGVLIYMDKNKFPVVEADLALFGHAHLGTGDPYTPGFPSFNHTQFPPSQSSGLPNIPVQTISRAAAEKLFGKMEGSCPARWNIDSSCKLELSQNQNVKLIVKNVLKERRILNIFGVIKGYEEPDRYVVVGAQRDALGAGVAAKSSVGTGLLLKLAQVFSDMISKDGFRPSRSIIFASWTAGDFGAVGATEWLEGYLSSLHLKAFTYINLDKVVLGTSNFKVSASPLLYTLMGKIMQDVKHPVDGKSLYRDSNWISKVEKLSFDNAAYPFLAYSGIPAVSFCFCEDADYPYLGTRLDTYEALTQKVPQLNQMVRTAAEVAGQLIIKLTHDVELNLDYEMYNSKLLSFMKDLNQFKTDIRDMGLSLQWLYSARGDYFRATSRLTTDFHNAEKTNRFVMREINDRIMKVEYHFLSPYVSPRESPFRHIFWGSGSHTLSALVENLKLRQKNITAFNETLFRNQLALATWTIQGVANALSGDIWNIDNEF

B1: muTNF(8C11)-GS-muTfR(AB221) (bispecific antibody)
VH: EFQLQQSGPELVKPGASVRISCKASGYSFTDYNMNWVKQSNGKSLEWVGVINPNYGSSTYNQKFKGKATLTVDQSSSTAYMQLNSLTSEDSAVYYCARKWGQLGRGFFDVWGTGTTVTVSSGGGGSGGGGSEVQLVESGGGLVQPGNSLTLSCVASGFTFSNYGMHWIRQAPKKGLEWIAMIYYDSSKMNYADTVKGRFTISRDNSKNTLYLEMNSLRSEDTAMYYCAVPTSHYVVDVWGQGVSVTVSS
VL: QIVLSQSPAILSASPGEKVTMTCRASSSVSYMHWFQQKPGSSPKPWIYATSNLASGVPARFSGSGSGTSYSLTISRVEAEDAATYYCQQWSSSPLTFGAGTKLELKRGGSGGGGSGDIQMTQSPASLSASLEEIVTITCQASQDIGNWLAWYQQKPGKSPQLLIYGATSLADGVPSRFSGSRSGTQFSLKISRVQVEDIGIYYCLQAYNTPWTFGGGTKLELK
notes: DVD-Ig; outer 8C11 (TNF), inner AB221 (TfR); also called 8C11-GS-AB221 DVD-Ig protein; TNF-GS-AB221; copies: 2 + 2
In the case of B1, in the assay with TNF, the “L929 TNF Neutralization assay IC50” value is 0.59 nM. Also, a half-maximal response in assay [1] (EC50) required 1.68 nM.

B2: AB405 (antibody, from another filing, V domains shown)
VH: QVQLVQSGAEVKKPGASVKVSCKASGFTFSNYGMHWIRQAPGQGLEWIAMIYYDSSKMNYADTVKGRFTITRDNSTNTLYMELSSLRSEDTAVYYCAVPTSHYVVDVWGQGTTVTVSS
VL: EIVMTQSPATLSVSPGERATLSCQASQDIGNWLAWYQQKPGQSPRLLIYGATSLADGVPARFSGSRSGTEFTLTISSLQSEDFAVYYCLQAYNTPWTFGGGTKVEIKR
In the case of B2, the EC50 in [2], in assay [3] and in assay [4] was 13.6 nM throughout.

B3: AB402 (antibody, from another filing, V domains shown)
VH: EVQLVESGGGLVQPGGSLRLSCAASGFTFSNYGMHWIRQAPGKGLEWIAMIYYDSSKMNYADTVKGRFTISRDNAKNSLYLQMNSLRAEDTAVYYCAVPTSHYVVDVWGQGTTVTVSS
VL: AIQMTQSPSSLSASVGDRVTITCQASQDIGNWLAWYQQKPGKSPKLLIYGATSLADGVPSRFSGSRSGTDFTLTISSLQPEDFATYYCLQAYNTPWTFGGGTKVEIKR
As to B3, in assay [2], the EC50 turned out to be 0.06 nM. This molecule yielded a half-maximal effective concentration (EC50) in assay [3] of 0.06 nM. Further, in the assay with rmTfR (123-763) [5], the Kd worked out at 3.7 nM, the koff was found to be 6.12e-05 s⁻¹ and the kon is 16400 M⁻¹ s⁻¹.

B4: DVD2360 (bispecific antibody)
VH: EVQLVESGGGLVQPGGSLRLSCAASGFTFSNYGMHWIRQAPGKGLEWIAMIYYDSSKMNYADTVKGRFTISRDNAKNSLYLQMNSLRAEDTAVYYCAVPTSHYVVDVWGQGTTVTVSSASTKGPEVQLLESGGGLVQPGGSLRLSCAASGFTFSNYGMSWVRQAPGKGLEWVASIRSGGGRTYYSDNVKGRFTISRDNSKNTLYLQMNSLRAEDTAVYYCVRYDHYSGSSDYWGQGTLVTVSS
VL: EIVMTQSPATLSVSPGERATLSCQASQDIGNWLAWYQQKPGQSPRLLIYGATSLADGVPARFSGSRSGTEFTLTISSLQSEDFAVYYCLQAYNTPWTFGGGTKVEIKRTVAAPDVVMTQSPLSLPVTPGEPASISCKSSQSLLDSDGKTYLNWLLQKPGQSPQRLIYLVSKLDSGVPDRFSGSGSGTDFTLKISRVEAEDVGVYYCWQGTHFPRTFGQGTKVEIK
notes: DVD-Ig
Consider B4, for which the EC50 in [6] was 0.15 nM. In the assay with rmTfR (123-763) [7], this molecule returned a Kd of 1.7 nM, a koff of 4.8e-05 s⁻¹ and a kon of 28000 M⁻¹ s⁻¹.

B5: AB221 (antibody, from another filing, V domains shown)
VH: EVQLVESGGGLVQPGNSLTLSCVASGFTFSNYGMHWIRQAPKKGLEWIAMIYYDSSKMNYADTVKGRFTISRDNSKNTLYLEMNSLRSEDTAMYYCAVPTSHYVVDVWGQGVSVTVSS
VL: DIQMTQSPASLSASLEEIVTITCQASQDIGNWLAWYQQKPGKSPQLLIYGATSLADGVPSRFSGSRSGTQFSLKISRVQVEDIGIYYCLQAYNTPWTFGGGTKLELKR
As to B5, the EC50 in [2] came out at 0.12 nM. In addition, the EC50 in assay [3] was 0.1 nM. The molecule further returned an EC50 (read off the curve) in [8] of 30 ng/mL. In assay [4], this molecule had an EC50 of 0.1 nM. In the assay with rmTfR (119-763) (mouse), this molecule yielded a Kd of 5 nM, a koff of 0.000181 s⁻¹ and a kon of 39400 M⁻¹ s⁻¹.

B6: anti-TNF antibody 8C11 (antibody, V domains shown)
VH: EFQLQQSGPELVKPGASVRISCKASGYSFTDYNMNWVKQSNGKSLEWVGVINPNYGSSTYNQKFKGKATLTVDQSSSTAYMQLNSLTSEDSAVYYCARKWGQLGRGFFDVWGTGTTVTVSS
VL: QIVLSQSPAILSASPGEKVTMTCRASSSVSYMHWFQQKPGSSPKPWIYATSNLASGVPARFSGSGSGTSYSLTISRVEAEDAATYYCQQWSSSPLTFGAGTKLELKR
Consider B6, for which the “L929 TNF Neutralization assay IC50” value in the assay with TNF came out at 5 nM.

B7: DVD2366 (bispecific antibody)
VH-VH: EVQLLESGGGLVQPGGSLRLSCAASGFTFSNYGMSWVRQAPGKGLEWVASIRSGGGRTYYSDNVKGRFTISRDNSKNTLYLQMNSLRAEDTAVYYCVRYDHYSGSSDYWGQGTLVTVSSASTKGPQVQLVQSGAEVKKPGASVKVSCKASGFTFSNYGMHWIRQAPGQGLEWIAMIYYDSSKMNYADTVKGRFTITRDNSTNTLYMELSSLRSEDTAVYYCAVPTSHYVVDVWGQGTTVTVSS
VL-VL: DVVMTQSPLSLPVTPGEPASISCKSSQSLLDSDGKTYLNWLLQKPGQSPQRLIYLVSKLDSGVPDRFSGSGSGTDFTLKISRVEAEDVGVYYCWQGTHFPRTFGQGTKVEIKRTVAAPEIVMTQSPATLSVSPGERATLSCQASQDIGNWLAWYQQKPGQSPRLLIYGATSLADGVPARFSGSRSGTEFTLTISSLQSEDFAVYYCLQAYNTPWTFGGGTKVEIK
notes: DVD-Ig
B7: the binding result in [6] is “no binding (tested: 10,000 ng/ml)”.

B8: muTfR(AB405)-SL-muTNF(8C11) (bispecific antibody)
VH: QVQLVQSGAEVKKPGASVKVSCKASGFTFSNYGMHWIRQAPGQGLEWIAMIYYDSSKMNYADTVKGRFTITRDNSTNTLYMELSSLRSEDTAVYYCAVPTSHYVVDVWGQGTTVTVSSASTKGPEFQLQQSGPELVKPGASVRISCKASGYSFTDYNMNWVKQSNGKSLEWVGVINPNYGSSTYNQKFKGKATLTVDQSSSTAYMQLNSLTSEDSAVYYCARKWGQLGRGFFDVWGTGTTVTVSS
VL: EIVMTQSPATLSVSPGERATLSCQASQDIGNWLAWYQQKPGQSPRLLIYGATSLADGVPARFSGSRSGTEFTLTISSLQSEDFAVYYCLQAYNTPWTFGGGTKVEIKRTVAAPSVFIFPPQIVLSQSPAILSASPGEKVTMTCRASSSVSYMHWFQQKPGSSPKPWIYATSNLASGVPARFSGSGSGTSYSLTISRVEAEDAATYYCQQWSSSPLTFGAGTKLELK
notes: DVD-Ig; outer AB405 (TfR), inner 8C11 (TNF); also called TfR(AB405)-SL-TNF DVD-Ig protein; copies: 2 + 2
Turning to B8, in the assay with TNF, the “L929 TNF Neutralization assay IC50” value turned out to be 4.94 nM. The molecule further showed an EC50 in assay [1] of 3.76 nM.

One may read the EC50 as the concentration needed to bring the measured effect to its halfway point. Read a low EC50 as an effect from little substance. Usually Kd stands for the equilibrium constant for the complex coming apart. For orientation: koff means the rate constant with which the complex falls apart. A word on the kon: it is the rate constant with which the complex forms. In general, EC50 (read off the curve) refers to the concentration giving half of the maximal effect. A higher EC50 (read off the curve) goes with weaker potency.

These data come from US20160002343A1 (AbbVie / Abbott, published 2016).
